Results from publication PMC4413028 (Science (New York, N.Y.), 2015).

B1: Get3(D57N) (native, full-length S. cerevisiae Get3, ATP hydrolysis mutant) (natural protein)
chain: MDLTVEPNLHSLITSTTHKWIFVGGKGGVGKTTSSCSIAIQMALSQPNKQFLLISTNPAHNLSDAFGEKFGKDARKVTGMNNLSCMEIDPSAALKDMNDMAVSRANNNGSDGQGDDLGSLLQGGALADLTGSIPGIDEALSFMEVMKHIKRQEQGEGETFDTVIFDTAPTGHTLRFLQLPNTLSKLLEKFGEITNKLGPMLNSFMGAGNVDISGKLNELKANVETIRQQFTDPDLTTFVCVCISEFLSLYETERLIQELISYDMDVNSIIVNQLLFAENDQEHNCKRCQARWKMQKKYLDQIDELYEDFHVVKMPLCAGEIRGLNNLTKFSQFLNKEYNPITDGKVIYELEDKE
B2: Get3 (S. cerevisiae, wild-type) co-expressed with 6xHis-Pep12(262-288) (natural protein)
chain: MDLTVEPNLHSLITSTTHKWIFVGGKGGVGKTTSSCSIAIQMALSQPNKQFLLISTDPAHNLSDAFGEKFGKDARKVTGMNNLSCMEIDPSAALKDMNDMAVSRANNNGSDGQGDDLGSLLQGGALADLTGSIPGIDEALSFMEVMKHIKRQEQGEGETFDTVIFDTAPTGHTLRFLQLPNTLSKLLEKFGEITNKLGPMLNSFMGAGNVDISGKLNELKANVETIRQQFTDPDLTTFVCVCISEFLSLYETERLIQELISYDMDVNSIIVNQLLFAENDQEHNCKRCQARWKMQKKYLDQIDELYEDFHVVKMPLCAGEIRGLNNLTKFSQFLNKEYNPITDGKVIYELEDKE

What was measured:
SEC-MALS [1] = target: the molecule itself; assay: SEC-MALS
SEC-MALS [2] = target: the molecule itself; assay: SEC-MALS; remark: listed apart in the source
[3] = target: the molecule itself; assay: sucrose gradient sedimentation
[4] = target: B1; assay: crystal structure
[5] = target: B2; assay: SEC-MALS

Row | Binder | stoichiometry N (SEC-MALS [1]) | binding result [4] | also measured
1 | B1 | 2 | – | –
2 | 6xHis-tagged Get3(D57N) (natural protein) MDLTVEPNLHSLITSTTHKWIFVGGKGGVGKTTSSCSIAIQMALSQPNKQFLLISTNPAHNLSDAFGEKFGKDARKVTGMNNLSCMEIDPSAALKDMNDMAVSRANNNGSDGQGDDLGSLLQGGALADLTGSIPGIDEALSFMEVMKHIKRQEQGEGETFDTVIFDTAPTGHTLRFLQLPNTLSKLLEKFGEITNKLGPMLNSFMGAGNVDISGKLNELKANVETIRQQFTDPDLTTFVCVCISEFLSLYETERLIQELISYDMDVNSIIVNQLLFAENDQEHNCKRCQARWKMQKKYLDQIDELYEDFHVVKMPLCAGEIRGLNNLTKFSQFLNKEYNPITDGKVIYELEDKE | – | – | stoichiometry N (SEC-MALS [2]): 2
3 | B2 | 4 | – | –
4 | Get3 (S. cerevisiae, full-length, wild-type) (natural protein) MDLTVEPNLHSLITSTTHKWIFVGGKGGVGKTTSSCSIAIQMALSQPNKQFLLISTDPAHNLSDAFGEKFGKDARKVTGMNNLSCMEIDPSAALKDMNDMAVSRANNNGSDGQGDDLGSLLQGGALADLTGSIPGIDEALSFMEVMKHIKRQEQGEGETFDTVIFDTAPTGHTLRFLQLPNTLSKLLEKFGEITNKLGPMLNSFMGAGNVDISGKLNELKANVETIRQQFTDPDLTTFVCVCISEFLSLYETERLIQELISYDMDVNSIIVNQLLFAENDQEHNCKRCQARWKMQKKYLDQIDELYEDFHVVKMPLCAGEIRGLNNLTKFSQFLNKEYNPITDGKVIYELEDKE | – | – | stoichiometry N [3]: 2
5 | KINFDLLISQYAPIVIVAFFFVFLFWWIFLK (domain or fragment) [Sec22(184-214), truncated TA substrate with N-terminal 6xHis tag] | – | binds | –
6 | KRTSRWRVYLLIVLLVMLLFIFLIMKL (domain or fragment) [Pep12(262-288), truncated TA substrate with N-terminal 6xHis tag] | – | binds | binding result [5]: binds
